From PMC3545708

Target: isolated HC fragment of BoNT/A (receptor-binding domain), wild type (Clostridium botulinum)
Experiment: ITC

Q: “full-length NTNHA-A1 (non-toxic non-hemagglutinin protein) (from UniProt Q45914 1-1193) (natural protein)” was tested. Which Kd did it give?
A: Its Kd is 0.0483 µM.
